We go through 2 substances from PMC5477644.

For assay [1], the target named is 6His-Ska1/Ska2/Ska3 (WT) (UniProt Q96BD8). Briefly: SEC + other: velocity sedimentation on a sucrose gradient.
Assay [2] deals with tubulin (microtubules). Briefly: TIRF, tracking of depolymerizing microtubule ends. The following applies: reference: SKA wild type complex; sites S34.

Sequence of Ska3 (C13orf3, RAMA1) (Q8IX90 whole entry, looked up, stated change not applied): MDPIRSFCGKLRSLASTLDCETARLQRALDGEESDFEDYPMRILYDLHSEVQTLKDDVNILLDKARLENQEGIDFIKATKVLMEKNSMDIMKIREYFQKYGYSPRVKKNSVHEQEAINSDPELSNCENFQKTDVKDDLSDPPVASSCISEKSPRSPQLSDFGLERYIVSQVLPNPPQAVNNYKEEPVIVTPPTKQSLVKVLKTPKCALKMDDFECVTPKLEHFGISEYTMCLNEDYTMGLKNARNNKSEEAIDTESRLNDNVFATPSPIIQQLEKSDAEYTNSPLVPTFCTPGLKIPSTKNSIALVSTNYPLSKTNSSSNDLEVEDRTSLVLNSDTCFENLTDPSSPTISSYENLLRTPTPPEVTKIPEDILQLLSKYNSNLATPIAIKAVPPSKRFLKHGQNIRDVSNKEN
Sequence of 6His-Ska1/Ska2/Ska3 (WT) (from UniProt Q96BD8 1-255; Q8WVK7 1-121; Q8IX90 1-412) (complex) (Q96BD8 whole entry): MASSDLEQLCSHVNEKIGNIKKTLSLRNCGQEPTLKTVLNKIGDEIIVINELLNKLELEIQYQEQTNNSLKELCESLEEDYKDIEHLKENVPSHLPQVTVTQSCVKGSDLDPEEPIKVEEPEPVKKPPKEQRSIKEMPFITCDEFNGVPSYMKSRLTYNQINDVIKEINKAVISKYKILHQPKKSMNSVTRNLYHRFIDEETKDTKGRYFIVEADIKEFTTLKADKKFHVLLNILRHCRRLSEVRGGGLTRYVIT
Sequence of 6His-Ska1/Ska2/Ska3 (WT) (from UniProt Q96BD8 1-255; Q8WVK7 1-121; Q8IX90 1-412) (complex) (Q8WVK7 whole entry): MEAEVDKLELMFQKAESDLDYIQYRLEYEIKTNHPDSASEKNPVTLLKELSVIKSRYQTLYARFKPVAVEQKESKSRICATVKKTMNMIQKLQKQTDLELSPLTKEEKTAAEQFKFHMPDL
Sequence of 6His-Ska1/Ska2/Ska3 (WT) (from UniProt Q96BD8 1-255; Q8WVK7 1-121; Q8IX90 1-412) (complex) (Q8IX90 whole entry): as the sequence (Q8IX90 whole entry, looked up, stated change not applied) above

The term stoichiometry N denotes a count of units in the complex or per binding partner. On to “6His-Ska1/Ska2/Ska3 (WT) (from UniProt Q96BD8 1-255; Q8WVK7 1-121; Q8IX90 1-412) (complex)”, for which the stoichiometry N in assay [1] came to 2.

Take “Ska3 (C13orf3, RAMA1) (from UniProt Q8IX90) SKA S34A complex”: the “other: median post/pre-conversion intensity ratio” value in assay [2] is on record as “same; reference 1.01”.
